US20250145711A1 (Janssen / Centocor, published 2025)

B1: CD3B2026 (scFv)
scFv: QVQLVQSGAEVKKPGSSVKVSCKASGYTFTRSTMHWVKQAPGQGLEWIGYINPSSAYTNYNQKFQGRVTLTADKSTSTAYMELSSLRSEDTAVYYCASPQVHYDYNGFPYWGQGTLVTVSSGGSEGKSSGSGSESKSTGGSEIVLTQSPATLSASPGERVTLSCSASSSVSYMNWYQQKPGTAPRRWIYDSSKLASGVPARFSGSGSGRDYTLTISSLEPEDFAVYYCQQWSRNPPTFGGGTKVEIK
B2: CD3B2052 (scFv)
scFv: QVQLVQSGAEVKKPGSSVKVSCKASGYTFTRSTMHWVKQAPGQGLEWMGYINPSSAYTNYAQKFQGRVTLTADKSTSTAYMELSSLRSEDTAVYYCASPQVHYDYNGFPYWGQGTLVTVSSGGSEGKSSGSGSESKSTGGSEIVLTQSPATLSASPGERVTLSCSASSSVSYMNWYQQKPGTSPRRWIYDSSKLASGVPARFSGSGSGRDYTLTISSLEPEDFAVYYCQQWSRNPPTFGGGTKVEIK
B3: CD3B2027 (scFv)
scFv: QVQLVQSGAEVKKPGSSVKVSCKASGYTFTRSTMHWVKQAPGQGLEWIGYINPSSAYTNYNQKFQGRVTLTADKSTSTAYMELSSLRSEDTAVYYCASPQVHYDYNGFPYWGQGTLVTVSSGGSEGKSSGSGSESKSTGGSEIVLTQSPATLSASPGERVTLSCSASSSVSYMNWYQQKPGTSPRRLIYDSSKLASGVPARFSGSGSGRDYTLTISSLEPEDFAVYYCQQWSRNPPTFGGGTKVEIK
B4: CD3B2054 (scFv)
scFv: QVQLVQSGAEVKKPGSSVKVSCKASGYTFTRSTMHWVKQAPGQGLEWMGYINPSSAYTNYAQKFQGRVTLTADKSTSTAYMELSSLRSEDTAVYYCASPQVHYDYNGFPYWGQGTLVTVSSGGSEGKSSGSGSESKSTGGSEIVLTQSPATLSASPGERVTLSCSASSSVSYMNWYQQKPGQAPRRLIYDSSKLASGVPARFSGSGSGRDYTLTISSLEPEDFAVYYCQQWSRNPPTFGGGTKVEIK
B5: CD3B2049 (scFv)
scFv: QVQLVQSGAEVKKPGSSVKVSCKASGYTFTRSTMHWVKQAPGQGLEWMGYINPSSAYTNYNQKFQGRVTLTADKSTSTAYMELSSLRSEDTAVYYCASPQVHYDYNGFPYWGQGTLVTVSSGGSEGKSSGSGSESKSTGGSEIVLTQSPATLSASPGERVTLSCSASSSVSYMNWYQQKPGTSPRRWIYDSSKLASGVPARFSGSGSGRDYTLTISSLEPEDFAVYYCQQWSRNPPTFGGGTKVEIK
B6: CD3B2036 (scFv)
scFv: QVQLVQSGAEVKKPGSSVKVSCKASGYTFTRSTMHWVKQAPGQGLEWMGYINPSSAYTNYAQKFQGRVTLTADKSTSTAYMELSSLRSEDTAVYYCASPQVHYDYNGFPYWGQGTLVTVSSGGSEGKSSGSGSESKSTGGSEIVLTQSPATLSASPGERVTLSCSASSSVSYMNWYQQKPGTAPRRWIYDSSKLASGVPARFSGSGSGRDYTLTISSLEPEDFAVYYCQQWSRNPPTFGGGTKVEIK
B7: CD3B2047 (scFv)
scFv: QVQLVQSGAEVKKPGSSVKVSCKASGYTFTRSTMHWVKQAPGQGLEWIGYINPSSAYTNYNQKFQGRVTLTADKSTSTAYMELSSLRSEDTAVYYCASPQVHYDYNGFPYWGQGTLVTVSSGGSEGKSSGSGSESKSTGGSEIVLTQSPATLSASPGERVTLSCSASSSVSYMNWYQQKPGQSPRRLIYDSSKLASGVPARFSGSGSGRDYTLTISSLEPEDFAVYYCQQWSRNPPTFGGGTKVEIK
B8: CD3B2053 (scFv)
scFv: QVQLVQSGAEVKKPGSSVKVSCKASGYTFTRSTMHWVKQAPGQGLEWMGYINPSSAYTNYAQKFQGRVTLTADKSTSTAYMELSSLRSEDTAVYYCASPQVHYDYNGFPYWGQGTLVTVSSGGSEGKSSGSGSESKSTGGSEIVLTQSPATLSASPGERVTLSCSASSSVSYMNWYQQKPGQSPRRLIYDSSKLASGVPARFSGSGSGRDYTLTISSLEPEDFAVYYCQQWSRNPPTFGGGTKVEIK
B9: CD3B2046 (scFv)
scFv: QVQLVQSGAEVKKPGSSVKVSCKASGYTFTRSTMHWVKQAPGQGLEWIGYINPSSAYTNYNQKFQGRVTLTADKSTSTAYMELSSLRSEDTAVYYCASPQVHYDYNGFPYWGQGTLVTVSSGGSEGKSSGSGSESKSTGGSEIVLTQSPATLSASPGERVTLSCSASSSVSYMNWYQQKPGTSPRRWIYDSSKLASGVPARFSGSGSGRDYTLTISSLEPEDFAVYYCQQWSRNPPTFGGGTKVEIK
B10: CD3B2048 (scFv)
scFv: QVQLVQSGAEVKKPGSSVKVSCKASGYTFTRSTMHWVKQAPGQGLEWIGYINPSSAYTNYNQKFQGRVTLTADKSTSTAYMELSSLRSEDTAVYYCASPQVHYDYNGFPYWGQGTLVTVSSGGSEGKSSGSGSESKSTGGSEIVLTQSPATLSASPGERVTLSCSASSSVSYMNWYQQKPGQAPRRLIYDSSKLASGVPARFSGSGSGRDYTLTISSLEPEDFAVYYCQQWSRNPPTFGGGTKVEIK
B11: CD3B2057 (scFv)
scFv: QVQLVQSGAEVKKPGSSVKVSCKASGYTFTRSTMHWVRQAPGQGLEWIGYINPSSAYTNYNQKFQGRVTLTADKSTSTAYMELSSLRSEDTAVYYCASPQVHYDYNGFPYWGQGTLVTVSSGGSEGKSSGSGSESKSTGGSEIVLTQSPATLSASPGERVTLSCSASSSVSYMNWYQQKPGQAPRRLIYDSSKLASGVPARFSGSGSGRDYTLTISSLEPEDFAVYYCQQWSRNPPTFGGGTKVEIK
B12: CD3B2056 (scFv)
scFv: QVQLVQSGAEVKKPGSSVKVSCKASGYTFTRSTMHWVRQAPGQGLEWIGYINPSSAYTNYNQKFQGRVTLTADKSTSTAYMELSSLRSEDTAVYYCASPQVHYDYNGFPYWGQGTLVTVSSGGSEGKSSGSGSESKSTGGSEIVLTQSPATLSASPGERVTLSCSASSSVSYMNWYQQKPGQSPRRLIYDSSKLASGVPARFSGSGSGRDYTLTISSLEPEDFAVYYCQQWSRNPPTFGGGTKVEIK
B13: CD3B2028 (scFv)
scFv: QVQLVQSGAEVKKPGSSVKVSCKASGYTFTRSTMHWVKQAPGQGLEWIGYINPSSAYTNYNQKFQGRVTLTADKSTSTAYMELSSLRSEDTAVYYCASPQVHYDYNGFPYWGQGTLVTVSSGGSEGKSSGSGSESKSTGGSEIVLTQSPATLSASPGERVTLSCSASSSVSYMNWYQQKPGTAPRRLIYDSSKLASGVPARFSGSGSGRDYTLTISSLEPEDFAVYYCQQWSRNPPTFGGGTKVEIK
B14: CD3B2059 (scFv)
scFv: QVQLVQSGAEVKKPGSSVKVSCKASGYTFTRSTMHWVKQAPGQGLEWIGYINPSSAYTNYAQKFQGRVTLTADKSTSTAYMELSSLRSEDTAVYYCASPQVHYDYNGFPYWGQGTLVTVSSGGSEGKSSGSGSESKSTGGSEIVLTQSPATLSASPGERVTLSCSASSSVSYMNWYQQKPGQSPRRLIYDSSKLASGVPARFSGSGSGRDYTLTISSLEPEDFAVYYCQQWSRNPPTFGGGTKVEIK
B15: CD3B2040 (scFv)
scFv: QVQLVQSGAEVKKPGSSVKVSCKASGYTFTRSTMHWVKQAPGQGLEWMGYINPSSAYTNYAQKFQGRVTLTADKSTSTAYMELSSLRSEDTAVYYCASPQVHYDYNGFPYWGQGTLVTVSSGGSEGKSSGSGSESKSTGGSEIVLTQSPATLSASPGERVTLSCSASSSVSYMNWYQQKPGQAPRRWIYDSSKLASGVPARFSGSGSGRDYTLTISSLEPEDFAVYYCQQWSRNPPTFGGGTKVEIK
B16: CD3B2050 (scFv)
scFv: QVQLVQSGAEVKKPGSSVKVSCKASGYTFTRSTMHWVKQAPGQGLEWMGYINPSSAYTNYNQKFQGRVTLTADKSTSTAYMELSSLRSEDTAVYYCASPQVHYDYNGFPYWGQGTLVTVSSGGSEGKSSGSGSESKSTGGSEIVLTQSPATLSASPGERVTLSCSASSSVSYMNWYQQKPGQSPRRLIYDSSKLASGVPARFSGSGSGRDYTLTISSLEPEDFAVYYCQQWSRNPPTFGGGTKVEIK
B17: CD3B2055 (scFv)
scFv: QVQLVQSGAEVKKPGSSVKVSCKASGYTFTRSTMHWVRQAPGQGLEWIGYINPSSAYTNYNQKFQGRVTLTADKSTSTAYMELSSLRSEDTAVYYCASPQVHYDYNGFPYWGQGTLVTVSSGGSEGKSSGSGSESKSTGGSEIVLTQSPATLSASPGERVTLSCSASSSVSYMNWYQQKPGTSPRRWIYDSSKLASGVPARFSGSGSGRDYTLTISSLEPEDFAVYYCQQWSRNPPTFGGGTKVEIK
B18: CD3B2032 (scFv)
scFv: QVQLVQSGAEVKKPGSSVKVSCKASGYTFTRSTMHWVKQAPGQGLEWMGYINPSSAYTNYNQKFQGRVTLTADKSTSTAYMELSSLRSEDTAVYYCASPQVHYDYNGFPYWGQGTLVTVSSGGSEGKSSGSGSESKSTGGSEIVLTQSPATLSASPGERVTLSCSASSSVSYMNWYQQKPGTSPRRLIYDSSKLASGVPARFSGSGSGRDYTLTISSLEPEDFAVYYCQQWSRNPPTFGGGTKVEIK

What follows are binders tested against T1, TRCW5 antigen (CD3δε-Fc-Avi) (biotinylated (site not stated)) (assay: ELISA after heat).
T1 construct: also called recombinant CD3
T1 sequence (chain, as listed by the source mutant limits assumed): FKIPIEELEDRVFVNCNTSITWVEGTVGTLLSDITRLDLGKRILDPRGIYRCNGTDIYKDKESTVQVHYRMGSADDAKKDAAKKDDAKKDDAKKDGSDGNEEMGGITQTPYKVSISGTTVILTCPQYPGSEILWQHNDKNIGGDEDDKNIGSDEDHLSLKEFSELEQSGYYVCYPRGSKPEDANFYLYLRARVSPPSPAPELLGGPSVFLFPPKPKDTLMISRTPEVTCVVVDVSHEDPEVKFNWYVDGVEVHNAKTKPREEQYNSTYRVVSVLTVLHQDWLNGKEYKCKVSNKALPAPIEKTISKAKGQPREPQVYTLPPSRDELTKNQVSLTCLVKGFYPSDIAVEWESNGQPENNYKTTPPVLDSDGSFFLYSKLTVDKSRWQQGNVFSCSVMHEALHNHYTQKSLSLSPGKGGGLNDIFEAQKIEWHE

% Retained 55° C. [%] | % Retained 60° C. [%] | % Retained 65° C. [%] | Binder
106 | 98 | 29 | B1
112 | 111 | 25 | B2
104 | 93 | 9 | B3
106 | 100 | 23 | B4
108 | 105 | 29 | B5
108 | 105 | 35 | B6
106 | 98 | 15 | B7
115 | 112 | 30 | B8
111 | 113 | 30 | B9
105 | 95 | 22 | B10
92 | 66 | 3 | B11
101 | 80 | 9 | B12
104 | 92 | 15 | B13
112 | 98 | 13 | B14
107 | 106 | 52 | B15
108 | 102 | 41 | B16
102 | 96 | 11 | B17
106 | 88 | 20 | B18
